Key:
[1] = test system: rat DRG neurons; test: Rheobase shift and evoked action potentials in rat DRG neurons (current clamp); format: cell-based
Summary of the method: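 Rat DRG neurons expressing engineered receptors, whole-cell current clamp at RT. ECS at pH 7.3; K-gluconate internal at pH 7.2. 500 ms steps from −200 to 700 pA with and without ligand. Rheobase taken as the smallest depolarising step that fires an action potential; input resistance from negative steps.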

[2] = test system: Lenti-X 293T cells; test: YFP fluorescence quenching anion reporter plate reader assay of engineered receptors stimulated with acetylcholine or a non-native ligand; format: cell-based
Summary of the method: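 YFP quench was followed for about 1 min 43 s after ligand delivered in iodide-based ECS, pH 7.2. Values are end-of-read fluorescence (last 10 s) divided by the pre-ligand baseline (15 s). Cells were LX293T, transfected with receptor DNA a day before the assay.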

B1: CODA1054: engineered chimeric LGIC receptor, R101M, L131F in SEQ ID NO: 33 (protein)
chain: MRCSPGGVWLALAASLLHVSLQGEFQRKLYKELVKNYNPLERPVANDSQPLTVYFSLSLLQIMDVDEKNQVLTTNIWLQMSWTDHYLQWNVSEYPGVKTVMFPDGQIWKPDILLYNSADERFDATFHTNVFVNSSGHCQYLPPGIFKSSCPMDLKNFPMDVQTCKLKFGSWSYGGWSLDLQMQEADISGYIPNGEWDLVGIPGKRSERFYECCKEPYPDVTFTVTMRRRMGYYLIQMYIPSLLIVILSWISFWINMDAAPARVGLGITTVLTMTTQSSGSRASLPKVSYVKAIDIWMAVCLLFVFSALLEYAAVNFVSRQHKELLRFRRKRRHHKSPMLNLFQEDEAGEGRFNFSAYGMGPACLQAKDGISVKGANNSNTTNPPPAPSKSPEEMRKLFIQRAKKIDKISRIGFPMAFLIFNMFYWIIYKIVRREDVHNQ
modifications: synthetic sequence of chimeric LGIC
[1]; +TC-5619 @ EC90
  Rheobase Shift; Rat DRG Neurons, +TC-5619 @ EC90: 673 ± 27 pA
[1]; Baseline, no ligand
  Rheobase Shift; Rat DRG Neurons, Baseline: 105 ± 13 pA
[2]; 1 nM CNL001, first column
  YFP fluorescence quenching using CNL001: 21.932%
[2]; 1 nM CNL001, second column
  YFP fluorescence quenching using CNL001: 39.689%
[2]; 1 nM brd
  YFP fluorescence quenching using TC-5619/Bradanicline: 6.609%
[2]; 3 nM brd
  YFP fluorescence quenching using TC-5619/Bradanicline: −7.635%
[2]; 3 nM var, first column
  YFP fluorescence quenching using Varenicline: 34.923
[2]; 3 nM var, second column
  YFP fluorescence quenching using Varenicline: 28.944
[2]; 10 nM CNL001, first column
  YFP fluorescence quenching using CNL001: 54.192%
[2]; 10 nM CNL001, second column
  YFP fluorescence quenching using CNL001: 64.111%
[2]; 10 nM brd
  YFP fluorescence quenching using TC-5619/Bradanicline: 4.459%
[2]; 30 nM brd
  YFP fluorescence quenching using TC-5619/Bradanicline: 69.782%
[2]; 30 nM var, first column
  YFP fluorescence quenching using Varenicline: 42.214
[2]; 30 nM var, second column
  YFP fluorescence quenching using Varenicline: 43.015
[2]; 50 nM CNL001, first column
  YFP fluorescence quenching using CNL001: 71.409%
[2]; 50 nM CNL001, second column
  YFP fluorescence quenching using CNL001: 70.989%
[2]; 50 nM abt
  YFP fluorescence quenching using ABT-126: −19.54%
[2]; 100 nM CNL001, first column
  YFP fluorescence quenching using CNL001: 74.148%
[2]; 100 nM CNL001, second column
  YFP fluorescence quenching using CNL001: 71.722%
[2]; 100 nM abt
  YFP fluorescence quenching using ABT-126: −18.28%
[2]; 100 nM brd
  YFP fluorescence quenching using TC-5619/Bradanicline: 77.633%
[2]; 300 nM abt
  YFP fluorescence quenching using ABT-126: −16.87%
[2]; 300 nM brd
  YFP fluorescence quenching using TC-5619/Bradanicline: 72.933%
[2]; 300 nM var, first column
  YFP fluorescence quenching using Varenicline: 47.059
[2]; 300 nM var, second column
  YFP fluorescence quenching using Varenicline: 52.768
[2]; 500 nM var, first column
  YFP fluorescence quenching using Varenicline: 59.542
[2]; 500 nM var, second column
  YFP fluorescence quenching using Varenicline: 62.641
[2]; 1 uM CNL001, first column
  YFP fluorescence quenching using CNL001: 71.378%
[2]; 1 uM CNL001, second column
  YFP fluorescence quenching using CNL001: 71.411%
[2]; 1 uM abt
  YFP fluorescence quenching using ABT-126: −11.77%
[2]; 1 uM var, first column
  YFP fluorescence quenching using Varenicline: 71.449
[2]; 1 uM var, second column
  YFP fluorescence quenching using Varenicline: 69.145
[2]; TC-6683 30 nM
  percent quench of YFP fluorescence, 30 nM TC-6683: −22.996%
[2]; TC-6683 300 nM
  percent quench of YFP fluorescence, 300 nM TC-6683: −27.055%
[2]; TC-6683 3 uM
  percent quench of YFP fluorescence, 3 uM TC-6683: −18.611%
[2]; TC-6683 30 uM
  percent quench of YFP fluorescence, 30 uM TC-6683: −13.879%
[2]; TC-6683 100 uM
  percent quench of YFP fluorescence, 100 uM TC-6683: −21.521%
[2]; acetylcholine 10 uM
  percent quench of YFP fluorescence, 10 uM ach: −3.98%
[2]; acetylcholine 100 uM
  percent quench of YFP fluorescence, 100 uM ach: −10.34%
[2]; acetylcholine 300 uM
  percent quench of YFP fluorescence, 300 uM ach: −10.25%
[2]; acetylcholine 500 uM
  percent quench of YFP fluorescence, 500 uM ach: −11.46%
[2]; acetylcholine 1 mM
  percent quench of YFP fluorescence, 1 mM ach: 1.77%
[2]; acetylcholine 3 mM
  percent quench of YFP fluorescence, 3 mM ach: 36.81%
[2]; acetylcholine 10 mM
  percent quench of YFP fluorescence, 10 mM ach: 74.02%

— patent US20240317834A1, “COMPOSITIONS AND METHODS FOR NEUROLOGICAL DISEASES” (CODA BIOTHERAPEUTICS, INC., priority 2020, published 2024)
